# Data: PMC3577912, “A Novel Role for Arabidopsis CBL1 in Affecting Plant Responses to Glucose and Gibberellin during Germination and Seedling Development” (PLoS ONE, 2013)
# T1: His-AKINβ1 fusion protein (Arabidopsis thaliana, UniProt Q84VQ1 1-283)
# T1 construct: AKINβ1, β regulatory subunit of SnRK1, Arabidopsis thaliana, AT5G21170; also called pET-AKINβ1; His-tagged AKINβ1
# T1 sequence (looked up): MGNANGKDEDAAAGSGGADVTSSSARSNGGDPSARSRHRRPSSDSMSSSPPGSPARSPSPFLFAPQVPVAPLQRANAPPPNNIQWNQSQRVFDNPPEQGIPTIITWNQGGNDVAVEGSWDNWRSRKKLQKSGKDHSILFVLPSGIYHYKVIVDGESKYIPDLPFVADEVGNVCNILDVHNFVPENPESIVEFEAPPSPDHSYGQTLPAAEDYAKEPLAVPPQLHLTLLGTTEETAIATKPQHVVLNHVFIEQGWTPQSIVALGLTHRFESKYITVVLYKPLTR
# Target: T1, His-AKINβ1 fusion protein
# Assay: pull-down; about 5 µg GST-CBL1 immobilised on Glutathione-Sepharose 4B beads, incubated with His-AKINβ1 overnight at 4°C, washed five times with ice-cold PBS, Western blot with anti-His antibody
# Details: both partners purified
binder,measurement,value
"GST-CBL1 fusion protein (natural protein, Calcineurin B-like protein 1 (CBL1), Arabidopsis thaliana, AT4G17615; also called pGEX-CBL1; glutathione S-transferase (GST)-CBL1; source: E. coli BL21 (DE3), purified (Glutathione Sepharose)) not shown",binding result,binds
